Measured values as given in the Human Domainome abundance scans (Beltran et al. 2025).

B1: Transcription elongation regulator 1-like protein, residues 448 to 504; numbered along this chain, Q5VWI1 (parent)
chain: LPLEERVTHFRDMLLERGVSAFSTWEKELHKIVFDPRYLLLNSEERKQIFEQFVKTR

Variants of: B1
Experiment: abundance fitness (aPCA) (normalised: wild type 0, dead -1); higher = more abundant; growth selection in yeast, the domain comes from the species named
Settings: Homo sapiens

Abundance fitness of substitutions, site by site:
E51: G -0.618 | Q -0.255 | P -0.929 | R -0.594 | C -0.96 | Y -0.375
E26: M -0.09 | A -0.636 | F -0.617 | D -0.168
E5: K -0.535 | L -0.565 | G -0.195 | T -0.553 | V -0.416 | Y -0.483 | P -0.697 | F -0.481
I32: G -0.764 | A -0.909 | S -0.916 | R -0.538 | Y 0.058 | M -0.466
K31: S -0.789 | R -0.662 | F -0.587 | C -0.457 | V -0.705
L3: V 0.28 | I 0.427 | H 0.663 | C -0.857 | A -0.337 | Q 0.591 | K 0.487 | N -0.031 | S -0.704 | R 0.304 | Y 0.138 | P -0.212
T8: L -0.471 | C -0.372 | H -0.39 | V -0.287 | Q -0.563 | N -0.275 | D -0.45
W25: A -0.589 | N -0.557 | M -0.154 | S -0.55 | G -0.898 | R -0.531
Q48: D 0.297 | M -0.002 | C -0.227 | S -0.139
V54: E -0.821 | A -0.451 | T -0.093 | W -0.624 | F -0.082 | P -0.811 | S -0.222
E44: V -0.159 | G -0.211 | L -0.211 | C -0.195 | P -0.606 | F -0.21 | I 0.179 | Q -0.143
T56: D 0.635 | C -0.214 | V -0.477 | W -0.482 | N 0.05 | P 0.109
S43: V -0.309 | A 0.016 | M -0.134 | G 0.034 | T -0.197 | F -0.328 | K -0.145
H9: G -0.554 | K 0.157 | R -0.202 | W -0.328 | Q 0.232 | A 0.001 | M 0.266 | Y -0.236 | S -0.073 | T -0.456 | E -0.234 | I 0.378
K27: E -0.165 | R -0.295 | P -0.627 | F 0.197
I49: A -0.517 | W -0.743 | Y 0.129 | C -0.261 | D 0.515 | G -0.643 | T 0.117 | M -0.599 | R -0.782 | E -0.3 | V 0.082
E16: N -0.657 | T -0.851 | W -0.646 | I -0.976 | K 0.226 | Y -0.882 | C -0.632 | M -0.438
F50: R -0.714 | V -0.833 | A -0.887 | N 0.347 | L -0.413 | Q -0.866
N42: V -0.924 | E -0.023 | A -0.571 | S 0.034 | P -0.533
L15: G -0.273 | C -0.454 | V -0.207 | I -0.315 | D -0.142
V33: C -0.514 | E -0.076 | M -0.227 | T -0.423 | W -0.415 | L -0.47
P2: E 0.88 | Q 0.364 | L -0.147
F34: L -0.019 | S 0.229 | I 0.199 | V -0.085 | M -0.04
K55: L -0.124 | A -0.266 | H -0.218 | T 0.212 | D -0.514 | E 0.209
E28: V -0.71 | C -0.542 | Y -0.946 | D -0.673 | I -1.02
S20: V -0.691 | T -0.38 | G -0.283 | A -0.369 | N 0.589
V19: L -0.998 | G -0.7 | A -0.709 | C -0.611 | R -0.916
T24: C 0.197 | A -0.561 | I -0.692 | L -0.559
R37: L -0.952 | P -0.769 | C -0.75 | Q -0.829 | W -0.733 | G -0.692 | E -0.917 | M -0.81
L14: H -0.997 | S -0.831 | W -0.093 | F -0.817 | C -0.561 | G -0.751 | T -0.528 | K -0.905 | A -0.701
R11: E -0.437 | L -0.396 | G -0.586 | P 0.183 | W -0.365 | F -0.248 | A -0.544 | Y -0.259 | C -0.5 | M -0.411
M13: E -0.582 | R -0.7 | V -0.327 | K -0.555 | I -0.623 | A -0.896 | C -0.804
S23: G -0.353
Y38: P -0.653 | K -0.275 | W -1.06 | V -0.767 | Q -0.668 | M -0.801 | S -0.898
V7: S -0.334 | W -0.594 | K 0.843 | F 0.022 | T -0.34
K47: F -0.04 | Q 0.159 | L -0.286 | I 0.151 | H -0.109 | D -0.747 | R 0.025
H30: D -0.235 | G -0.505 | N -0.547 | A -0.714 | Y -0.337 | C -0.569 | P 0.098
R6: W -0.774 | M -0.266 | F -0.292 | A 0.062 | E -1.01 | N -0.485
F22: M -0.431 | T 0.048 | S 0.063 | R -0.155 | C 0.078 | P -0.48
L1: S -0.082 | I 2.04
R46: K -0.429 | F -0.533 | W -0.012 | V -0.436 | Y -0.162 | S -0.644 | L -0.697
D12: W -0.059 | F -0.624 | P -0.83 | K -0.119
F53: W -0.05 | H -0.466 | S -0.718 | Y 0.15 | E -0.964 | V -0.797
L29: H 0.264 | W -0.986 | S -0.452 | V -0.213
D35: H -0.354 | R -0.436 | P -0.722
E4: N 0.154 | S 0.033 | T -0.631 | P -0.711
L41: I -0.409 | D -1.04 | E -0.781 | Q -0.473 | V -0.226 | P -0.917 | Y -0.755 | H -0.543 | T -0.592 | A -0.681 | G -0.569
E45: H -0.204 | M -0.107 | L -0.067 | G -0.427 | V -0.858 | Y -0.557 | R -0.434
Q52: K -0.238 | M -0.428 | Y -0.804 | S -0.151 | T -0.33 | H -0.426 | A -0.395 | E 0.114
F10: C -1.1 | L -0.682 | M -0.782 | H 0.065 | P -0.227 | T -0.679 | G -0.727
A21: G -0.365 | S -0.303 | C -0.202 | P -0.114 | Y -0.482
G18: E 0.071 | C -0.714
R17: E -0.479 | V -0.434 | C -0.151 | M -0.237 | N -0.218 | Q -0.287 | H -0.02
P36: A -0.42 | C -0.869 | W -0.011 | L -0.714 | S -0.488
L40: W -0.639 | V -0.877 | G -0.349
